A word on the Kd: it is a measure of binding affinity in units of concentration.

The target in experiment [1] is C3b (UniProt P01024). Description: cell-based or functional assay.
Experiment [2] addresses C3b (UniProt P01024). Description: SPR (Biacore), FH flowed over C3b amine-coupled to a CM5 chip; steady-state fit to two flow cells (1540 and 3030 RU C3b) together. For orientation: Surface plasmon resonance follows binding to a sensor surface in real time, without labels.

A value given as a limit tells only on which side of the number the result lay.

Sequence of C3b (P01024 749-1663 limits assumed, chain 1 of 2): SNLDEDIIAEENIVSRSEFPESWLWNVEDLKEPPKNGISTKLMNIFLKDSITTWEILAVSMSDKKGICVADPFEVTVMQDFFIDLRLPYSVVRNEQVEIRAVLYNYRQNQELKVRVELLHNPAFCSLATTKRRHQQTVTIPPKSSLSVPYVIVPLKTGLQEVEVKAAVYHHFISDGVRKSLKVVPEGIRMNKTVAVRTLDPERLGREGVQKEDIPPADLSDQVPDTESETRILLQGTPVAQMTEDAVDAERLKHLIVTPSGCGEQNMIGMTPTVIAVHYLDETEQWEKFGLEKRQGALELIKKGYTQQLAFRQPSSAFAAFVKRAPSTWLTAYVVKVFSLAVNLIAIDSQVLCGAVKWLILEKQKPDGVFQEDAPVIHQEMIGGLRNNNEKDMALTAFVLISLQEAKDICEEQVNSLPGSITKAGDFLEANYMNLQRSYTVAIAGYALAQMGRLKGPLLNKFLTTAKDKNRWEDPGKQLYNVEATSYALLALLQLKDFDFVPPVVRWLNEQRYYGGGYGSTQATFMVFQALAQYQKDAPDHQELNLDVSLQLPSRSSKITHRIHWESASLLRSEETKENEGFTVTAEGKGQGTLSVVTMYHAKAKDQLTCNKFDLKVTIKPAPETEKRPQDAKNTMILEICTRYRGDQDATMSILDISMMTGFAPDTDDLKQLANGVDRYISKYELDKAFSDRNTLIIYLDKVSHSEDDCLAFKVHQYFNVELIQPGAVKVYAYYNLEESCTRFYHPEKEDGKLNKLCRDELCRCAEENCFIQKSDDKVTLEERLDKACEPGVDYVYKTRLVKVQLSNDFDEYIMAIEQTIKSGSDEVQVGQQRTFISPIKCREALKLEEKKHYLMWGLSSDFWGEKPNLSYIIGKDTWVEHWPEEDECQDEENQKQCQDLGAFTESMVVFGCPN
Sequence of C3b (P01024 23-667 limits assumed, chain 2 of 2): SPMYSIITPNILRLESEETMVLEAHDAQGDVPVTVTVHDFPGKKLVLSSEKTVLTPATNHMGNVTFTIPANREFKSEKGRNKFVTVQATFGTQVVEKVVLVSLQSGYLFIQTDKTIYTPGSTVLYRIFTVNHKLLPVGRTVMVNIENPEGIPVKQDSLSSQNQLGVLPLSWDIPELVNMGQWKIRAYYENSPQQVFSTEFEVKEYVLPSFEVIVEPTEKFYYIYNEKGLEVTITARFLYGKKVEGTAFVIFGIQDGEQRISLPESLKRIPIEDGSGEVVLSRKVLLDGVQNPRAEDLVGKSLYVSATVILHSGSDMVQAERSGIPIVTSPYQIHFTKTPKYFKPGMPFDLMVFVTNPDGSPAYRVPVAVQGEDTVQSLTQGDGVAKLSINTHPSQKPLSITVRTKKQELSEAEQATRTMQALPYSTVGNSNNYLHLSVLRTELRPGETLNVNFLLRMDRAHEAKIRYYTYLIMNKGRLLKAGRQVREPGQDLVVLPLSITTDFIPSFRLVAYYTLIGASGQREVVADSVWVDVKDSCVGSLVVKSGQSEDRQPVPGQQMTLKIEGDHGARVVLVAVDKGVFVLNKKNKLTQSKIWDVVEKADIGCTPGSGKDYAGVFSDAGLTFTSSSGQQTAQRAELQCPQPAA

On to “recombinant human complement factor H produced in Pichia pastoris from codon-optimised DNA (Example 2) (from UniProt P08603 19-1231)”, for which the cofactor for factor I-catalysed cleavage of C3b to iC3b (SDS-PAGE, Coomassie blue) in experiment [1] was < 5 min. For the same substance, the Kd in experiment [2] came to 1.4 µM.

(Values after patent US20170335310A1.)
